Data as given in article PMC4871749 (Nature chemical biology, 2016).
No end group written: not given here. *: point of attachment. Crotonyl(E) = C/C=C/C(=O)*

T1: Taf14 YEATS domain, Taf14 (1-132), uniformly 15N-labeled (yeast, UniProt P35189 1-132)
T1 sequence (looked up): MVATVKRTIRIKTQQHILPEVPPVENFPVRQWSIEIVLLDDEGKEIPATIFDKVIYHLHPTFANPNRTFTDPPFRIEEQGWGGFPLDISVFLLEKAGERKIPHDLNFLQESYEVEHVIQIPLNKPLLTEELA

T2: Taf14 YEATS domain (residues 1-137) (yeast, UniProt P35189 1-137)
T2 sequence (looked up): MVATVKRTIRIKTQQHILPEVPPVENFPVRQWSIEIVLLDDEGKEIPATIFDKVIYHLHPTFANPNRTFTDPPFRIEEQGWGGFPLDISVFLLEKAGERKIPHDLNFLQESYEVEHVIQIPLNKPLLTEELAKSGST


Tests used:
[1] = target: Taf14 YEATS domain (construct of the fluorescence assay) (yeast) (UniProt P35189); test: other fluorescence titration
[2] = target: T1, Taf14 YEATS domain, Taf14 (1-132), …; test: NMR titration
[3] = target: T2, Taf14 YEATS domain (residues 1-137); test: crystal structure

Kd [1]	binding result [2]	binding result [3]	Molecule
9.5 µM			H3K9cr5-13 peptide (residues 5-13 of H3, crotonylated at lysine 9) (from UniProt P61830 6-14)
	binds		QTARK(Ac)STGG (peptide, UniProt P61830 6-14, looked up) [H3K9ac5-13 peptide (residues 5-13 of H3, acetylated at lysine 9)]
	binds	binds	QTARK(Crotonyl(E))STGG (peptide, UniProt P61830 6-14, looked up) [H3K9cr5-13 peptide (residues 5-13 of H3, crotonylated at lysine 9)]
